Measurements from article PMC12680531 (2026).
No end group written: not given here.

Biological target: 12A8
Assay: SPR

Kd: 8.34 nM
Binder: TWGYPFHDGDYLNDE (also: biotin, position not given here, GSAGGS spacer, position not given here) [biotinylated hTM4SF4 (T126-E140) peptide containing a GSAGGS spacer]
